The results in this text go back to patent US20250215097A1 (BEIJING TIANNUOJIANCHENG PHARMA TECH, published 2025).

By EC50 is commonly meant the concentration needed to bring the measured effect to its halfway point.

The target of assay [1] is T1, cynomolgus monkey CCR8 (cynomolgus monkey, UniProt O97665 1-356 (rhesus entry)).
T1 construct: Full-length, stably expressed on CHO cells; also called cynoCCR8; CHO-cynoCCR8
As to the kind of experiment: flow cytometry on CHO-cynoCCR8 cells. On the procedure: (§1) 5×10⁴ CHO-hCCR8 or CHO-cynoCCR8 cells were added per well in a 96-well U-shaped plate and centrifuged to discard the supernatant. 100 μL of a gradiently diluted anti-CCR8 chimeric antibody was added per well and the mixture was incubated on ice for 60 minutes. After the unbound primary antibody was washed away, 50 μL, of a secondary antibody AlexaFluro647 anti-human IgG (Jackson Immuno Research #109-606-170) was added per well and the mixture was incubated on ice for 30 minutes. After the washing, 50 μL of 5 μg/mL of a Pi/BSA solution was added to each well and the mixture was incubated on ice for 5 minutes. Then excess secondary antibody was washed away with 0.5% BSA, the cells were resuspended by adding a PBS solution, and binding of the antibody to the cells was detected using a flow cytometer (BD Celesta). The fluorescence value of a PI-negative cell population was analyzed. Cell-binding curves were fitted by Graphpad Prism 7.
On the technique in general: Flow cytometry measures light scatter and fluorescence of single cells or particles in a stream.

Assay [2] deals with T2, human CCR8 (human, UniProt P51685 1-355).
T2 construct: Full-length human CCR8 stably expressed on CHO or HEK293 cells; also endogenous on HuT78 cells in one ADCC assay; also called hCCR8; CHO-hCCR8
As to the kind of experiment: flow cytometry on CHO-hCCR8 cells. On the procedure: as §1

In assay [3] the target is T2, human CCR8. As to the kind of experiment: cell-based or functional assay.
The target in assay [4] is T2, human CCR8. As to the kind of experiment: cell-based or functional assay. This is another data set of the same source.
In assay [5] the target is T1, cynomolgus monkey CCR8. As to the kind of experiment: flow cytometry, chimeric IgG on CHO-cynoCCR8 cells. Here is the method:
(§2) 5×10⁴ CHO-hCCR8 or CHO-cynoCCR8 cells were added per well in a 96-well U-shaped plate and centrifuged to discard the supernatant, 100 μL of a gradiently diluted anti-CCR8 chimeric antibody or anti-KLH isotype control antibody was added per well and the mixture was incubated on ice for 60 minutes. After the unbound primary antibody was washed away, 50 μL of a secondary antibody AlexaFluro647 anti-human IgG (Jackson Immuno Research #109-606-170) was added per well and the mixture was incubated on ice for 30 minutes. After the washing, 50 μL of 5 μg/mL of a PI/BSA solution was added to each well and the mixture was incubated on ice for 5 minutes. Then excess secondary antibody was washed away with 0.5% BSA, the cells were resuspended by adding a PBS solution, and binding of the antibody to the cells was detected using a flow cytometer (Intellicyte iQue). The fluorescence value of a Pi-negative cell population was analyzed. Cell-binding curves were fitted by Graphpad Prism 7 (FIG. 2). The chimeric antibodies of 87D8, 102H5, 109F6, 110G2, 113B3, 139A9, 144D2, etc. all bound with high affinities to human CCR8+ cells CHO-hCCR8 and cynomolgus monkey CCR8+ cells CHO-cynoCCR8.

The target of assay [6] is T2, human CCR8. As to the kind of experiment: flow cytometry, chimeric IgG on CHO-hCCR8 cells. On the procedure: as §2
Assay [7] concerns the target T2, human CCR8. As to the kind of experiment: cell-based or functional assay. The source holds these as a separate data set.

T1 sequence (O97665 other isoform, or with tags, fused parts or gaps): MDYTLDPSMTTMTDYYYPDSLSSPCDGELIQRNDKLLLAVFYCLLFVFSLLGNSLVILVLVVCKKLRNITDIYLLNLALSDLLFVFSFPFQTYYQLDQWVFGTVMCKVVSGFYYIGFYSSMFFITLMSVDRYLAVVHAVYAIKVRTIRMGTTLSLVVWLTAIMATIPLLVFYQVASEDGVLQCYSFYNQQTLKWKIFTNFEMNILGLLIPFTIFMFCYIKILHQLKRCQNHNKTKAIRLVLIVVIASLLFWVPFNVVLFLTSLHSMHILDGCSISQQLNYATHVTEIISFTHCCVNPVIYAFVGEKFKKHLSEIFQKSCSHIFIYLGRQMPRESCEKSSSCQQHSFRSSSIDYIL
T2 sequence (P51685 whole entry): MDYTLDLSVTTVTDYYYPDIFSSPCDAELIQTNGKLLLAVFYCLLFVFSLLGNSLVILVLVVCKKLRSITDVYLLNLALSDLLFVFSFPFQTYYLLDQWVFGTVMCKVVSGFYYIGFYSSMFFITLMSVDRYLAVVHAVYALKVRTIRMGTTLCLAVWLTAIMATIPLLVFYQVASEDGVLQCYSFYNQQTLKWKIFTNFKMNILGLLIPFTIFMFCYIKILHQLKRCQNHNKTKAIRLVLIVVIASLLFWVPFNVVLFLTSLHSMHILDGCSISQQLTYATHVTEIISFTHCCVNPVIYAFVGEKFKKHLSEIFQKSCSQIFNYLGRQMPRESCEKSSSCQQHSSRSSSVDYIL

B1: h87D8 H1K1 (antibody, human IgG1, V domains shown)
VH: EVQLVESGGGLVQPGGSLRLSCAASGFTFNTYAMNWVRQAPGKGLEWVARIRSKSNNYATYYADSVKGRFTISRDDSQSSLYLQMNSLRAEDTAVYYCVRGKEAGAYYAMDYWGQGTLVTVSS
VL: DIVMTQSPLSLPVTPGEPASISCRSSKSLLHSNGNTYLYWFLQKPGQSPQLLIYRMSNLASGVPDRFSGSGSGTDFTLKISRVEAEDVGVYYCMQHLEYPLTFGQGTKLEIK
notes: Humanized; also called h87D8 VHv1+h87D8 VKv1
As for B1, the results for the EC50 in the assay with cynomolgus monkey CCR8 [1] and in the assay with human CCR8 [2] were 1.19 nM and 0.53 nM, respectively. In addition, the “ADCC half-maximal effective concentration (EC50), NK92-CD16A effectors, HEK293-hCCR8 targets” value with human CCR8 [3] amounted to 0.01 nM.

B2: h87D8 H1K1 hIgG1 e5 (antibody, V domains shown)
VH: EVQLVESGGGLVQPGGSLRLSCAASGFTFNTYAMNWVRQAPGKGLEWVARIRSKSNNYATYYADSVKGRFTISRDDSQSSLYLQMNSLRAEDTAVYYCVRGKEAGAYYAMDYWGQGTLVTVSS
VL: DIVMTQSPLSLPVTPGEPASISCRSSKSLLHSNGNTYLYWFLQKPGQSPQLLIYRMSNLASGVPDRFSGSGSGTDFTLKISRVEAEDVGVYYCMQHLEYPLTFGQGTKLEIKR
As for B2, in the assay with human CCR8 [4], the “ADCC EC50 (nM), PBMC FcγRIIIA158F/F effectors, HEK293-hCCR8 targets” value was 0.01 nM; the “ADCC EC50 (nM), PBMC FcγRIIIA158V/V effectors, HEK293-hCCR8 targets” value amounted to 0.01 nM; the “ADCC maximal lysis rate, PBMC FcγRIIIA158F/F effectors, HEK293-hCCR8 targets” value worked out at 70%; the “ADCC maximal lysis rate, PBMC FcγRIIIA158V/V effectors, HEK293-hCCR8 targets” value is 72%. For the same molecule, in the assay with human CCR8 [3], the “ADCC maximal lysis rate, NK92-CD16A effectors, HEK293-hCCR8 targets” value was determined as 58% and the “half-maximal effective concentration EC50 of inhibition of the Ca2+ current signal, CHO-hCCR8 cells, CCL1 stimulus” value came out at 5.59 nM.

B3: h144D2 H1K1 (antibody, human IgG1, V domains shown)
VH: EVQLVESGGGLVQPGGSLRLSCAASGFTFNAFAMNWVRQAPGKGLEWVARIRSKSNNYATYYADSVKGRFTISRDDSQSSLYLQMNSLRAEDTAVYYCVRGKEAGAYYAMDYWGQGTLVTVSS
VL: DIVMTQSPLSLPVTPGEPASISCRSSKSLLHSNGNTYLYWFLQKPGQSPQLLIYRMSNLASGVPDRFSGSGSGTDFTLKISRVEAEDVGVYYCMQHLEYPLTFGQGTKLEIK
notes: Humanized; also called h144D2 VHv1+h87D8 VKv1
For the molecule B3, the figures for the EC50 with cynomolgus monkey CCR8 [1] and in the assay with human CCR8 [2] were 1.16 nM and 0.89 nM, respectively. In the assay with human CCR8 [3], the “ADCC half-maximal effective concentration (EC50), NK92-CD16A effectors, HEK293-hCCR8 targets” value was determined as 0.02 nM.

B4: 102H5 anti-CCR8 chimeric antibody (antibody, V domains shown)
VH: QVQLVESNGRLVQPKGSLKLSCAASGFTFNAYAMNWVRQAPGKGLEWVARIRSKSNNYATYYADSVKDRFTISRDDSQNMLYLQMNNLKTEDTAMYFCVRQKFGARGYYALDFWGQGATVTVSS
VL: DIVLTQSPASLAVSLGQRATISCRASESVEYYGTSLMQWYQQKPGQPPKLLIYAASNVESGVPARFSGSGSGTDFSLNIHPVEEDDIAMYFCQQSRKVPYTFGGGTKLEIK
As for B4, the EC50 came out at 1.18 nM in the assay with cynomolgus monkey CCR8 [5] and 0.46 nM with human CCR8 [6]. Also, the “ADCC EC50 (nM), NK92-CD16A effectors, HEK293-hCCR8 targets, LDH release” value (from here on “ADCC EC50 (nM), NK92-CD16A effectors”) in the assay with human CCR8 [7] was determined as 0.06 nM.

B5: 113B3 anti-CCR8 chimeric antibody (antibody, V domains shown)
VH: EVQLVESNGGLVQPKGSLKLSCAASGFTFNAYAMNWVRQAPGKGLEWVARIRSKSNNYATYYADSVKDRFTISRDDSQSMLYLQMNNLKTEDTAMYFCVRQKFGSRGYYALDFWGQGATVTVSS
VL: QIVLTQSPAIMSASLGERVTMTCTASSSVSSSYLHWYQQKPGSSPKLWIYSTSNLASGVPARFSGSGSGTSYSLTISSMEAEDAATYYCHQYHRSPRTFGGGTRLEIK
For B5, the EC50 turned out to be 1.99 nM with cynomolgus monkey CCR8 [5] and 0.4 nM with human CCR8 [6]. Besides, the “ADCC EC50 (nM), NK92-CD16A effectors” value in the assay with human CCR8 [7] worked out at 0.04 nM.

B6: 139A9 anti-CCR8 chimeric antibody (antibody, V domains shown)
VH: QVQLVESNGRLVQPKGSLKLSCAASGFTFNAYAMNWVRQAPGKGLEWVARIRSKSNNYATYYADSVKDRFTISRDDSQSMLYLQMNNLKTEDTAMYFCVRQKFGARGYYALDFWGQGASVTVSS
VL: ENVLTQSPTTMAASPGEKITITCSASSSISSNYLHWYQQKPGFSPKLLIYRTSNLASGVPARFSGSGSGTSYSLTIGTMEAEDVATYYCQQGSSIPLTFGAGTKLELK
For the molecule B6, the EC50 is 1.99 nM with cynomolgus monkey CCR8 [5] and 0.49 nM with human CCR8 [6]. In the assay with human CCR8 [7], the “ADCC EC50 (nM), NK92-CD16A effectors” value is 0.06 nM.

B7: 109F6 anti-CCR8 chimeric antibody (antibody, V domains shown)
VH: QVQLVESNGRLVQPKGSLKLSCAASGFTFNAYAMNWVRQAPGKGLEWVARIRSKSNNYATYYADSVKDRFTISRDDSQSMLYLQMNNLKTEDTAMYFCVRQKFGARGYYALDFWGQGASVTVSS
VL: DIVLTQSPASLAVSLGQRATISCRASKSVSTSGYSYMHWYQQKPGQPPKLLIYLASNLESGVPARFSGSGSGTDFTLNIHPVEEEDAATYYCQHSRELPPTFGGGTKLEIK
Take B7: the figures for the EC50 with cynomolgus monkey CCR8 [5] and with human CCR8 [6] were 0.74 nM and 0.2 nM, respectively. Besides, the “ADCC EC50 (nM), NK92-CD16A effectors” value in the assay with human CCR8 [7] came to 0.07 nM.

B8: 110G2 anti-CCR8 chimeric antibody (antibody, V domains shown)
VH: QVQLVESNGRLVQPKGSLKLSCAASGFTFNAYAMNWVRQAPGKGLEWVARIRSKSNNYATYYADSVKDRFTISRDDSQSMLYLQMNNLKTEDTAMYFCVRQKFGARGYYALDFWGQGASVTVSS
VL: EILLTQSPAIMSASPGEKVTMTCRASSSVSSSYLHWYQQKSGASPKLWIYSTSNLASGVPARFSGSGSGTSYSLTISSVEAEDAATYYCQQYSGYPYTFGGGTKLEIK
Turning to B8, the EC50 was 1.26 nM with cynomolgus monkey CCR8 [5] and 0.45 nM in the assay with human CCR8 [6]. In addition, the “ADCC EC50 (nM), NK92-CD16A effectors” value with human CCR8 [7] was 0.04 nM.

B9: 116F10 anti-CCR8 chimeric antibody (antibody, V domains shown)
VH: EVQLVESYGGLVQPKGSLKLSCAASGFTFNAYAMNWVRQAPGKGLEWVARIRSKSNNYATYYADSVKDRFTISRDDSQNILYLQMNNLKIEDTAMYFCVRQKFGSRGYYALDFWGQGASVTVSS
VL: EIVLTQSPAIMSVSPGEKVTMTCRASSSVSSSYLHWYQQKSGASPKLWIYSTSTLASGVPARFSGSGSGTSYSLTISSVEAEDAATYYCQHYTVYPLGTFGGGTKLEIK
With B9, the 50% effective concentration (EC50) with cynomolgus monkey CCR8 [5] amounted to 1.25 nM; with human CCR8 [6], 0.58 nM. Moreover, in the assay with human CCR8 [7], the “ADCC EC50 (nM), NK92-CD16A effectors” value came out at 0.1 nM.
